From patent US20190321483A1 (Novartis, published 2019)
Residue numbers refer to the chain shown, from its start.

T1: Rat cKIT D1-5, C-terminal mFc (rat)
T1 construct: also called rat cKIT-mFc
T1 chain: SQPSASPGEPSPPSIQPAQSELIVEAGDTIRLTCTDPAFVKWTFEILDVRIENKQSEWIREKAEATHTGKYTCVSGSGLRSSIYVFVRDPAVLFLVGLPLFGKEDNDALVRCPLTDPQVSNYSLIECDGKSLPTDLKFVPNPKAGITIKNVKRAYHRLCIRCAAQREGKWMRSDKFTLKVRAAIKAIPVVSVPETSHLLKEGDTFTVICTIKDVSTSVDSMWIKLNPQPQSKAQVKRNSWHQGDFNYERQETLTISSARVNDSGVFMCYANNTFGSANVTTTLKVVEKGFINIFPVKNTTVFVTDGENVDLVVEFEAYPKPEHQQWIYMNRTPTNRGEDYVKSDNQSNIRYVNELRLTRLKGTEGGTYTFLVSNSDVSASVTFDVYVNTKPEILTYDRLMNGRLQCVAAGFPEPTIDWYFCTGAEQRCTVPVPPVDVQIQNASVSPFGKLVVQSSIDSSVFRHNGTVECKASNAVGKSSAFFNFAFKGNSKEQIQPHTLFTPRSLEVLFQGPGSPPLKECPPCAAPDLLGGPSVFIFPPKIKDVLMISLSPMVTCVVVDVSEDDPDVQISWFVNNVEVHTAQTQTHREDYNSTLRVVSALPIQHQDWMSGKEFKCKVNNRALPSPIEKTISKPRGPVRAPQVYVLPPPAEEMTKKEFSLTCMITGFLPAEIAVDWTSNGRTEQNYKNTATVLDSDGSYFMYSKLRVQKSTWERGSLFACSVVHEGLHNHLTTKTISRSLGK

T2: Mouse cKIT ECD, C-terminal 6x His (Sino Biological Inc, Catalog number 50530-M08H) (mouse, UniProt P05532 25-527)
T2 construct: extracellular domain
T2 sequence: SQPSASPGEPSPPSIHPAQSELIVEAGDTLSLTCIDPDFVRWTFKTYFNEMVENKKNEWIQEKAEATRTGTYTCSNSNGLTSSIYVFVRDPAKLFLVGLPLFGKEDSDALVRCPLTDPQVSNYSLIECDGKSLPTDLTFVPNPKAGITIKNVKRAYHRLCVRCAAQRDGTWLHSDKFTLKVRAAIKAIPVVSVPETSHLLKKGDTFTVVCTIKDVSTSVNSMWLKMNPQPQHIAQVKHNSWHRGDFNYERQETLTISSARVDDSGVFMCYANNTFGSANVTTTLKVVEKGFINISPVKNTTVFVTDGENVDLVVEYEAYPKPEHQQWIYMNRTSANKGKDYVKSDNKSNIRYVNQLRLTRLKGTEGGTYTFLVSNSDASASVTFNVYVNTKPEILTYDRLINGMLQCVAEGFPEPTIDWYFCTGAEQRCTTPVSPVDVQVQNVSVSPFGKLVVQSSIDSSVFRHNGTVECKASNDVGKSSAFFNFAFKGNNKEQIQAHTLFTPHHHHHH

T3: Cynomolgus monkey cKIT D1-5 (cynomolgus monkey, UniProt P10721 26-524 (human entry))
T3 construct: also called cyno cKIT ECD
T3 chain: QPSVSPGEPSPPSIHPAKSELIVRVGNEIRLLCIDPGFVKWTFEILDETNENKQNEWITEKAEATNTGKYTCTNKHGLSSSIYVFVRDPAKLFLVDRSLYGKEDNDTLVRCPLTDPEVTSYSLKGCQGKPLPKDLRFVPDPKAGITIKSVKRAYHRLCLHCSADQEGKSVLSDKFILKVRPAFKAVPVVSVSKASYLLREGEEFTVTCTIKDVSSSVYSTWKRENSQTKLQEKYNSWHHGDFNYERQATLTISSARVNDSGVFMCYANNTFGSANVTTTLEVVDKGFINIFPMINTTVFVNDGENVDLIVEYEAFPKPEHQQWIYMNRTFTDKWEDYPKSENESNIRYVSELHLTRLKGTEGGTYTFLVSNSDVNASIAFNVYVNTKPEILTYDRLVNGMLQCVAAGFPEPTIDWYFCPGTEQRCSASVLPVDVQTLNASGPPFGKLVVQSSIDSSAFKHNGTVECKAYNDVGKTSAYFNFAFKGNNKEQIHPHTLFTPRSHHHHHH

B1: J5: Anti-cKIT Fab′5 conjugated to Compound (1), DAR 4 (Fab, V domains shown)
VH: QVQLVQSGAEVKKPGESLKISCKGSGYSFTNYWIAWVRQMPGKGLEWMGIIYPSNSYTLYSPSFQGQVTISADKSISTAYLQWSSLKASDTAMYYCARVPPGGSISYPAFDHWGQGTLVTVSS
VL: DIELTQPPSVSVSPGQTASITCSGDNIGSIYASWYQQKPGQAPVLVIYRDNKRPSGIPERFSGSNSGNTATLTISGTQAEDEADYYCSVTDMEQHSVFGGGTKLTVLG
modifications: Compound (1) on native cysteine LC-214C (EU); Compound (1) on native cysteines HC-220C-226C-229C (EU)
B2: J3: Anti-cKIT Fab′3 conjugated to Compound (1), DAR 4 (Fab, V domains shown)
VH: QVQLVQSGAEVKKPGSSVKVSCKASGGTFSSYAISWVRQAPGQGLEWMGTIGPFEGQPRYAQKFQGRVTITADESTSTAYMELSSLRSEDTAVYYCARGGYISDFDVWGQGTLVTVSS
VL: DIQMTQSPSSLSASVGDRVTITCRASQSISNYLAWYQQKPGKAPKLLIYDASSLQSGVPSRFSGSGSGTDFTLTISSLQPEDFATYYCQQYYYESITFGQGTKVEIKR
modifications: Compound (1) on native cysteine LC-214C (EU); Compound (1) on native cysteines HC-220C-226C-229C (EU)
B3: J20: Anti-cKIT Fab′3 conjugated to mc-MMAF, DAR 4 (Fab, V domains shown)
VH: B2 VH
VL: B2 VL
modifications: mc-MMAF on native cysteine LC-214C (EU); mc-MMAF on native cysteines HC-220C-226C-229C (EU)
B4: J22: Anti-cKIT Fab′3 conjugated to Compound (2), DAR 4 (Fab, V domains shown)
VH: B2 VH
VL: B2 VL
modifications: Compound (2) on native cysteine LC-214C (EU); Compound (2) on native cysteines HC-220C-226C-229C (EU)
B5: J14: Anti-cKIT Fab′1 conjugated to mc-MMAF, DAR 4 (Fab, V domains shown)
VH: B2 VH with T50V, G52F, F54A, Q57A, R59G
VL: B2 VL
modifications: mc-MMAF on native cysteine LC-214C (EU); mc-MMAF on native cysteines HC-220C-226C-229C (EU)
B6: J1: Anti-cKIT Fab′1 conjugated to Compound (1), DAR 4 (Fab, V domains shown)
VH: B2 VH with T50V, G52F, F54A, Q57A, R59G
VL: B2 VL
modifications: Compound (1) on native cysteine LC-214C (EU); Compound (1) on native cysteines HC-220C-226C-229C (EU)
B7: J19: Anti-cKIT Fab′2 conjugated to Compound (2), DAR 4 (Fab, V domains shown)
VH: QVQLVQSGAEVKKPGSSVKVSCKASGGTFSSHALSWVRQAPGQGLEWMGGIIPSFGTADYAQKFQGRVTITADESTSTAYMELSSLRSEDTAVYYCARGLYDFDYWGQGTLVTVSS
VL: B2 VL with S28D, N31Q, Y32D, T85V, E94L, S95P, I96S
modifications: Compound (2) on native cysteine LC-214C (EU); Compound (2) on native cysteines HC-220C-226C-229C (EU)
B8: J15: Anti-cKIT Fab′1 conjugated to Compound (5), DAR 4 (Fab, V domains shown)
VH: B2 VH with T50V, G52F, F54A, Q57A, R59G
VL: B2 VL
modifications: Compound (5) on native cysteine LC-214C (EU); Compound (5) on native cysteines HC-220C-226C-229C (EU)
B9: J18: Anti-cKIT Fab′2 conjugated to Compound (5), DAR 4 (Fab, V domains shown)
VH: B7 VH
VL: B2 VL with S28D, N31Q, Y32D, T85V, E94L, S95P, I96S
modifications: Compound (5) on native cysteine LC-214C (EU); Compound (5) on native cysteines HC-220C-226C-229C (EU)
B10: J21: Anti-cKIT Fab′3 conjugated to Compound (5), DAR 4 (Fab, V domains shown)
VH: B2 VH
VL: B2 VL
modifications: Compound (5) on native cysteine LC-214C (EU); Compound (5) on native cysteines HC-220C-226C-229C (EU)
B11: J16: Anti-cKIT Fab′1 conjugated to Compound (2), DAR 4 (Fab, V domains shown)
VH: B2 VH with T50V, G52F, F54A, Q57A, R59G
VL: B2 VL
modifications: Compound (2) on native cysteine LC-214C (EU); Compound (2) on native cysteines HC-220C-226C-229C (EU)
B12: J17: Anti-cKIT Fab′2 conjugated to mc-MMAF, DAR 4 (Fab, V domains shown)
VH: B7 VH
VL: B2 VL with S28D, N31Q, Y32D, T85V, E94L, S95P, I96S
modifications: mc-MMAF on native cysteine LC-214C (EU); mc-MMAF on native cysteines HC-220C-226C-229C (EU)
B13: J2: Anti-cKIT Fab′2 conjugated to Compound (1), DAR 4 (Fab, V domains shown)
VH: B7 VH
VL: B2 VL with S28D, N31Q, Y32D, T85V, E94L, S95P, I96S
modifications: Compound (1) on native cysteine LC-214C (EU); Compound (1) on native cysteines HC-220C-226C-229C (EU)
B14: Anti-cKIT Ab3 (antibody, human IgG1, kappa, V domains shown)
VH: B2 VH
VL: B2 VL
notes: Full-length human IgG1, kappa light chain; also called IgG control for J3
B15: J4: Anti-cKIT Fab′4 conjugated to Compound (1), DAR 4 (Fab, V domains shown)
VH: QVQLQQSGPGLVKPSQTLSLTCAISGDSVSTNSAAWNWIRQSPSRGLEWLGRIYYRSQWLNDYAVSVKSRITINPDTSKNQFSLQLNSVTPEDTAVYYCARQLTYPYTVYHKALDVWGQGTLVTVSS
VL: DIELTQPPSVSVSPGQTASITCSGDNLGDQYVSWYQQKPGQAPVLVIYDDTDRPSGIPERFSGSNSGNTATLTISGTQAEDEADYYCQSTDSKSVVFGGGTKLTVLG
modifications: Compound (1) on native cysteine LC-214C (EU); Compound (1) on native cysteines HC-220C-226C-229C (EU)

Key:
[1] = molecular target: Mouse cKIT on C57BL/6J bone marrow cells (mouse, UniProt P05532 25-979); assay: cell-based or functional assay
[2] = molecular target: Human cKIT on human mobilized peripheral blood hematopoietic stem cells (human, UniProt P10721 26-976); assay: cell-based or functional assay
[3] = molecular target: T1, Rat cKIT D1-5, C-terminal mFc; assay: cross reactivity, Table 6 (Example 4: Biacore SPR, antibody captured by anti-human Fc, cKIT ECD in solution)
[4] = molecular target: T2, Mouse cKIT ECD, C-terminal 6x His (Sino …); assay: as above
[5] = molecular target: T3, Cynomolgus monkey cKIT D1-5; assay: 'in SET' by the column head; Example 4 describes Biacore SPR (antibody captured by anti-human Fc, cKIT ECD in solution)

Binder	EC50 (ng/ml), cell viability after 7 days, Human CD34+ cells [2]	EC50 (ng/ml), cell viability after 7 days, Human CD90+ cells [2]	EC50 (ng/ml), cell viability after 7 days, Human total nucleated cells [2]	other results
B1				EC50 (ng/ml), cell viability after 7 days, Mouse CD45+ cells [1]: 210 ng/mL; EC50 (ng/ml), cell viability after 7 days, Mouse cKIT+ cells [1]: 120 ng/mL; EC50 (ng/ml), cell viability after 7 days, Mouse total nucleated cells [1]: 210 ng/mL
B2	8 ng/mL	12 ng/mL	45 ng/mL	
B3	25 ng/mL	72 ng/mL	20 ng/mL	
B4	10 ng/mL	17 ng/mL	8 ng/mL	
B5	10 ng/mL	11 ng/mL	7 ng/mL	
B6	11 ng/mL	13 ng/mL	48 ng/mL	
B7	16 ng/mL	23 ng/mL	14 ng/mL	
B8	5 ng/mL	1 ng/mL	6 ng/mL	
B9	11 ng/mL	3 ng/mL	15 ng/mL	
B10	88 ng/mL	22 ng/mL	154 ng/mL	
B11	7 ng/mL	9 ng/mL	6 ng/mL	
B12	16 ng/mL	37 ng/mL	12 ng/mL	
B13	11 ng/mL	16 ng/mL	58 ng/mL	
B14				binding result [3]: no binding; binding result [4]: no binding; Kd [5]: 0.052 nM
B15				EC50 (ng/ml), cell viability after 7 days, Mouse CD45+ cells [1]: 3800 ng/mL; EC50 (ng/ml), cell viability after 7 days, Mouse cKIT+ cells [1]: 8 ng/mL; EC50 (ng/ml), cell viability after 7 days, Mouse total nucleated cells [1]: 3800 ng/mL
